In US20230250557A1 (published 2023):

Biological target: T1, Biotinylated human PD-L1 antigen comprising a human IgG1 Fc domain (Acro Biosystems) (human, UniProt Q9NZQ7 19-238, biotinylated (site not stated))
T1 construct: The ELISA text says only 'antigens' were coated at 1 ug/mL; also called PD-L1 target; not shown: human IgG1 Fc domain
Test: ELISA, antigen coated at 1 ug/mL, purified scaffold titrated, anti-FLAG-HRP detection
Method: (§1) Affinity of binding of individual scaffolds of the invention was estimated by ELISA. Antigens were dissolved in PBS to 1 μg/mL and 100 μl coated onto the surface of each well of a 96 well MaxiSorp Plate (Nunc) at 4° C. overnight. The next day, the wells of the MaxiSorp plate were washed with PBST buffer (PBS containing 0.05% Tween-20) and the wells blocked with 400 μl per well of 5% (w/v) skim milk powder in PBST for 2 hours. This blocking buffer was then discarded and the wells of the plate washed with PBST. […] The diluted target binding scaffold proteins were then transferred to the antigen coated MaxiSorp plate and allowed to bind to the immobilized blocked antigens for 2 hours at room temperature with gentle shaking. Following this, the diluted target binding scaffold protein solution was discarded and the wells of the MaxiSorp plate were washed 4 times with PBST. Then, 100 μl of a 1/4000 diluted solution of anti-FLAG M2 HRP conjugated antibody (Sigma) in PBST containing 2.5% (w/v) skim milk was added to each well and allowed to bind for 1 hour. This was then discarded and the plate washed 4 times with PBST. Then 100 μl of ELISA POD Substrate TMB Kit (HYPER) detection reagent (Nacalai Tesque, Japan) was added per well and the color development reaction stopped by addition of 100 μl of 1M phosphoric acid. Absorbance of each well was read at 450 nm wavelength. The EC₅₀ of binding was calculated from four parameter logistic plots of the measured absorbance values (FIGS. 17A-17B).

T1 sequence (Q9NZQ7 19-238 limits assumed): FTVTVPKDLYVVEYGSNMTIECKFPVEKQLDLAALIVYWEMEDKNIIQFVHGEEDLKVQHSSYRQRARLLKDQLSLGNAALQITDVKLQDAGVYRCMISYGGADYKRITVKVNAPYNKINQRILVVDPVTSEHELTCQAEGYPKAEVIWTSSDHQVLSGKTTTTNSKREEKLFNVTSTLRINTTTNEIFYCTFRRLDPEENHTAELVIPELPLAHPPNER

Binder	EC50
1-12E (designed binder, CheBc scaffold clone from modified pQE-80L in E. coli, purified on cobalt resin, detected with anti-FLAG) GSHMVSGKIVVIGSSTGGPRSLDMIIPNLPKNFPAPIVVVQHGDGWYGGGAVGTKSLAQRLDSTSELTVKEAEDGEEVKPGFVYIAPGDFHLGLKAQNGKVFFFLDKSGGSYTGEWTWGVRPAVDFTLDKAAEIYKEKTIAVILTGGARYGDLRGGDGTKGAFKVKFYGGTVIAEDKETSVVFGMPKSVIEEGYADYVLPAYKIPEKLIELV	165 nM
1-1B (designed binder, CheBc scaffold clone from modified pQE-80L in E. coli, purified on cobalt resin, detected with anti-FLAG) GSHMVSGKIVVIGSSTGGPRSLDMIIPNLPKNFPAPIVVVQHGEGWYGGGAVGTKSLAQRLDSTSELTVKEAEDGEEVKPGFVYIAPGDFHLGLKAQNGKVFFFLDKSGRGLRGGWSWGVRPAVDFTLDKAAEIYKEKTIAVILTGGAATGSSNGGDGTKGAFKVKFYGGTVIAEDKETSVVFGMPKSVIEEGYADYVLPAYKIPEKLIELV	108 nM
1-12C (designed binder, CheBc scaffold clone from modified pQE-80L in E. coli, purified on cobalt resin, detected with anti-FLAG) GSHMVSGKIVVIGSSTGGPRSLDMIIPNLPKNFPAPIVVVQHGWALNGRYTLGTKSLAQRLDSTSELTVKEAEDGEEVKPGFVYIAPGDFHLGLKAQNGKVFFFLDKSGARDRGREWYGVRPAVDFTLDKAAEIYKEKTIAVILTGGYWEGDYAGGDGTKGAFKVKFYGGTVIAEDKETSVVFGMPKSVIEEGYADYVLPAYKIPEKLIELV	91 nM

Biological target: T2, Biotinylated human HER2 antigen comprising a portion of the HER2 extracellular domain (Acro Biosystems) (human, UniProt P04626 23-652, biotinylated (site not stated))
T2 construct: extracellular domain; The ELISA text says only 'antigens' were coated; also called HER2 target
Test: as above
Method: as §1

Binder	EC50
4-7D (designed binder, CheBc scaffold clone from modified pQE-80L in E. coli, purified on cobalt resin, detected with anti-FLAG) GSHMVSGKIVVIGSSTGGPRSLDMIIPNLPKNFPAPIVVVQHGHDWSGSSGWGTKSLAQRLDSTSELTVKEAEDGEEVKPGFVYIAPGDFHLGLKAQNGKVFFFLDKSGWVSWGWTNNGVRPAVDFTLDKAAEIYKEKTIAVILTGGRYEGVLLGGDGTKGAFKVKFYGGTVIAEDKETSVVFGMPKSVIEEGYADYVLPAYKIPEKLIELV	65 nM
3-7E (designed binder, CheBc scaffold clone from modified pQE-80L in E. coli, purified on cobalt resin, detected with anti-FLAG) GSHMVSGKIVVIGSSTGGPRSLDMIIPNLPKNFPAPIVVVQHGYYWGSWGYEGTKSLAQRLDSTSELTVKEAEDGEEVKPGFVYIAPGDFHLGLKAQNGKVFFFLDKSGRVVDGWDYDGVRPAVDFTLDKAAEIYKEKTIAVILTGGWDTGSELGGDGTKGAFKVKFYGGTVIAEDKETSVVFGMPKSVIEEGYADYVLPAYKIPEKLIELV	22 nM
3-8A (designed binder, CheBc scaffold clone from modified pQE-80L in E. coli, purified on cobalt resin, detected with anti-FLAG) GSHMVSGKIVVIGSSTGGPRSLDMIIPNLPKNFPAPIVVVQHGSWVDGSWTWGTKSLAQRLDSTSELTVKEAEDGEEVKPGFVYIAPGDFHLGLKAQNGKVFFFLDKSGWWNGGYWVTGVRPAVDFTLDKAAEIYKEKTIAVILTGGVNLGLYNGGDGTKGAFKVKFYGGTVIAEDKETSVVFGMPKSVIEEGYADYVLPAYKIPEKLIELV	4 nM
